Source: patent US20250326860A1 (ADAGENE PTE, published 2025)

How the values were obtained:
[1] = target: T1, human CD3 on cells (Jurkat cells, human T cells) (human, UniProt P07766 23-207); assay: binding to human CD4+ T cells
T1 construct: whole, on cells

[2] = target: T2, human CD20 on cells (human B cells; Raji, SU-DHL-8, SU-DHL-4, A3KAW, NAMALWA) (human, UniProt P11836 1-297); assay: flow cytometry, Raji cells
T2 construct: whole, on cells
T2 sequence (looked up): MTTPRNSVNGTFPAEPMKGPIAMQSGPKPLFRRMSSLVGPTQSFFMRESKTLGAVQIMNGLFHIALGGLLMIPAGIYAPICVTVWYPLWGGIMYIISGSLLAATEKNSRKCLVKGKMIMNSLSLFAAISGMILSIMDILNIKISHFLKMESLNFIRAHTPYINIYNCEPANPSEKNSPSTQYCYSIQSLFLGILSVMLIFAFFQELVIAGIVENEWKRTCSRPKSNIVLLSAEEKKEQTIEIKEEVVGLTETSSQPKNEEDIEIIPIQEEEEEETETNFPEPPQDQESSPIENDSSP
Experimental: (§1) Raji, SU-DHL-8, SU-DHL-4, A3KAW and NAMALWA were B-cell lymphoma cell lines with various CD20 expression levels on cell surface. Briefly, the test antibodies were serial diluted and were incubated with the tumor cells on ice. After washing, the cells were subsequently incubated with the APC-labelled anti-human-Fc secondary antibody (BioLegend) on ice. The cells were then washed with PBS prior to analysis by the CytoFLEX flow cytometer (Beckman Coulter). The data was analyzed by FlowJo software.

[3] = target: T1, human CD3 on cells (Jurkat cells, human …); assay: binding to human CD3+ T cells
[4] = target: T2, human CD20 on cells (human B cells; …); assay: binding to human B cells
[5] = target: T2, human CD20 on cells (human B cells; …); assay: flow cytometry, SU-DHL-4 cells
Experimental: as §1

[6] = target: T3, cynomolgus monkey CD3 on T cells (cynomolgus monkey, UniProt Q95LI5 22-198); assay: flow cytometry, purified monkey CD3+ T cells
T3 construct: whole, on cells
T3 sequence (Q95LI5 22-198): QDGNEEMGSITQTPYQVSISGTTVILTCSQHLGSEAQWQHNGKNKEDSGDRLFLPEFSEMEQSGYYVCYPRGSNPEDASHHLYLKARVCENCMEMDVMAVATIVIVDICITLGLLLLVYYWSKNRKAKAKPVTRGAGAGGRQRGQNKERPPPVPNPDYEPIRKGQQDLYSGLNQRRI

[7] = target: T2, human CD20 on cells (human B cells; …); assay: flow cytometry, A3KAW cells
Experimental: as §1

[8] = target: T2, human CD20 on cells (human B cells; …); assay: flow cytometry, SU-DHL-8 cells
Experimental: as §1

[9] = target: T1, human CD3 on cells (Jurkat cells, human …); assay: binding to human CD8+ T cells
[10] = target: T2, human CD20 on cells (human B cells; …); assay: flow cytometry, human B cells
Text: (§2) Human and monkey PBMCs were isolated as mentioned above. Human B cells were further isolated from PBMCs using the EasySep™ Human B Cell Isolation Kit (Stem Cell Technologies). Monkey B cells were isolated from PBMCs using the Non-Human B Primate Cell Isolation Kit (Stem Cell Technologies). Purified human or monkey B cells were stained with the testing antibodies as the primary antibody and the APC-labelled anti-human-Fc antibody (BioLegend) as the secondary antibody. After washing, the cells were analyzed on the CytoFLEX flow cytometer (Beckman Coulter) and the data was analyzed by FlowJo software.

[11] = target: T3, cynomolgus monkey CD3 on T cells; assay: flow cytometry, monkey CD3+ T cells
[12] = target: T4, cynomolgus monkey CD20 on B cells (cynomolgus monkey, UniProt M4ZHZ6 1-297); assay: flow cytometry, monkey B cells
T4 construct: whole, on cells
T4 sequence: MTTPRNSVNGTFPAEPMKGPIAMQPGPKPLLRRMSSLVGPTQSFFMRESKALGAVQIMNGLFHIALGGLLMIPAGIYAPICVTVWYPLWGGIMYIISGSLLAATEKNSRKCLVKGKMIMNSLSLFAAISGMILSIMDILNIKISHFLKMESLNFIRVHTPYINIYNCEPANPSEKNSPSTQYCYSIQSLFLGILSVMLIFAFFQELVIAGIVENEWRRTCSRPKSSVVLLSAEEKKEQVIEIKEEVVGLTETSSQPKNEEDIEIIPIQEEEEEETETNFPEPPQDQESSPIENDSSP
Text: as §2

[13] = target: T2, human CD20 on cells (human B cells; …); assay: binding to Raji cells
[14] = target: T1, human CD3 on cells (Jurkat cells, human …); assay: flow cytometry, human CD3+ T cells
[15] = target: T2, human CD20 on cells (human B cells; …); assay: flow cytometry, NAMALWA cells
Experimental: as §1

T1 sequence (P07766 23-207): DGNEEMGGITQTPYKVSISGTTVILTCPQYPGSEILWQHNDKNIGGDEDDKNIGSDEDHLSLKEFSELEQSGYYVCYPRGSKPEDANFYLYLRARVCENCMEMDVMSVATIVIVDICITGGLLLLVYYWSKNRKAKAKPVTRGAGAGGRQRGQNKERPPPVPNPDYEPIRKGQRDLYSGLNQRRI

B1: TY25606 (bispecific antibody, human IgG1, kappa, N297A)
light: QIVLSQSPAILSASPGEKVTMTCRASSSVSYIHWFQQKPGKSPKPWIYATSNLASGVPVRFSGSGSGTSYSLTISRVEAEDAATYYCQQWTSNPPTFGGGTKVEIKRTVAAPSVFIFPPSDEQLKSGTASVVCLLNNFYPREAKVQWKVDNALQSGNSQESVTEQDSKDSTYSLSSTLTLSKADYEKHKVYACEVTHQGLSSPVTKSFNRGEC
heavy: EVQLVQSGAEVKKPGSSVKVSCKASGYTFTSYNMHWVRQAPGKGLEWIGAIYPGSGDTSYNQKFKGRVTITADKSTSTAYMELSSLRSEDTAVYYCARSTYYGGDWYFNVWGQGTLVTVSSASTKGPSVFPLAPSSKSTSGGTAALGCLVKDYFPEPVTVSWNSGALTSGVHTFPAVLQSSGLYSLSSVVTVPSSSLGTQTYICNVNHKPSNTKVDKKVEPKSCDKTHTCPPCPAPELLGGPSVFLFPPKPKDTLMISRTPEVTCVVVDVSHEDPEVKFNWYVDGVEVHNAKTKPREEQYASTYRVVSVLTVLHQDWLNGKEYKCKVSNKALPAPIEKTISKAKGQPREPQVYTLPPSRKKLTKNQVKLTCLVKGFYPSDIAVEWESNGQPENNYKTTPPVLDCDGSFFLYSKLTVDKSRWQQGNVFSCSVMHEALHNHYTQKSLSLSPGK
chain: EVGSYPYDDPDCPSHESDCDQGGGPLGLAGGSQAVVTQEPSLTVSPGGTVTLTCGSSTGAVTTSNYPNWVQQKPGQAPRGLIGGTNKRAPGVPARFSGSLLGGKAALTLSGAQPEDEAEYYCALWYSNLWVFGGGTKLTVLGGGGSGGGGSGGGGSGGGGSEVQLVESGGGLVQPGGSLRLSCAASGFTFNTYAINWVRQAPGKGLEWVGRIRSKYNNYATYYAESVKGRFTISRDDSKNTLYLQINSLRAEDTAVYYCVRHGNFGTSYVSWFAYWGQGTLVTVSSEPKSSDKTHTCPPCPAPELLGGPSVFLFPPKPKDTLMISRTPEVTCVVVDVSHEDPEVKFNWYVDGVEVHNAKTKPREEQYASTYRVVSVLTVLHQDWLNGKEYKCKVSNKALPAPIEKTISKAKGQPREPQVYTDPPSRDELTKNQVSLTCLVDGFYPSDIAVEWESNGQPENCYKTTPPVLDSDGSFFLYSKLTVDKSRWQQGNVFSCSVMHEALHNHYTQDSLSLSPGK
notes: also called SAFEbody/bispecific
For B1, the EC50 [1] was over 2000 nM, the EC50 [2] was 35 nM and the “Max MFI” value [2] was 24200 MFI. For the same binder, the EC50 [3] was over 2000 nM, the EC50 [4] was 78.2 nM and the EC50 [5] was 16 nM. For the same binder, the “Max MFI” value [5] was 2.67e+06 MFI, the binding result [6] was “no binding” and the EC50 [7] was 121 nM. For the same binder, the “Max MFI” value [7] was 942000 MFI, the EC50 [8] was 43 nM and the “Max MFI” value [8] was 5790 MFI. For the same binder, the EC50 [9] was over 2000 nM, the EC50 [10] was 11.7 nM and the “max MFI” value [10] was 51600 MFI. For the same binder, the “max MFI” value [11] was 174 MFI, the EC50 [12] was 14.4 nM and the “max MFI” value [12] was 36000 MFI. The EC50 [13] was 35 nM, the “max MFI” value [14] was 1090 MFI and the EC50 [15] was 90.4 nM. For the same binder, the “Max MFI” value [15] was 656000 MFI.
